From US20180194833A1 (H LUNDBECK A S, published 2018)

B1: GM37 (antibody, human IgG1, kappa, V domains shown)
VH: EVQLLESGGGLVQTGGSLRLSCAASGFTFSSYAMTWVRQAPGKGLEWVSAIRSNGDRTDYADSVKGRFTISRDNSQNTLYLQMNSLRAEDTAVYYCAKNWAPFDSWGQGTLVTVSS
VL: not shown
notes: also called GM37 wild type (wt); GM37wt
B2: GM285 (antibody, human IgG1, kappa, V domains shown)
VH: EVQLLESGGGLVQPGGSLRLSCAASGFTFSRFTMTWVRQAPGKGLEWVSAISGSGGGTSYADSVKGRLTVSRDNSKNTLYLQMNSLRAEDTAVYYCAKNWAPFDYWGQGTLVTVSS
VL: not shown
notes: also called mab285
B3: Comparator antibody 9E4 (antibody, human IgG1, kappa, V domains shown)
VH: EVQLVESGGGLVQPGGSLRLSCAASGFTFSNYGMSWVRQAPGKGLEWVASISSGGGSTYYPDNVKGRFTISRDNAKNSLYLQMNSLRAEDTAVYYCARGGAGIDYWGQGTLVTVSS
VL: DIQMTQSPSSLSASVGDRVTITCKSIQTLLYSSNQKNYLAWFQQKPGKAPKLLIYWASIRKSGVPSRFSGSGSGTDFTLTISSLQPEDLATYYCQQYYSYPLTFGGGTKLEIKR
notes: also called h9E4; human 9E4

How the values were obtained:
Mouse alpha-synuclein = Mouse alpha-synuclein (mouse, UniProt O55042 1-140); assay: Fortebio Octetred
Human alpha-synuclein = Human alpha-synuclein (human, UniProt P37840 1-140); assay: SPR (BIAcore 3000), antibody captured by goat anti-human IgG, human alpha-synuclein 3.125-100 nM as analyte
Description: Goat anti-human IgG was immobilized on the CM5 chip. […] The sensor surface was regenerated between each cycle.

Binder	binding result (Mouse alpha-synuclein)	binding result (Human alpha-synuclein)
B1	binds	–
B2	binds	–
B3	–	binds
